# In the supplement of paper PMC9233669:
# This sample holds only a part of the variants without activity.
# Tests used:
# biotinyl-Leu-oxazolone = assay: self-aminoacylation, catalytic enhancement (BLO) (fold over background); higher = more active; k-Seq, kA / k0A0; sequences stand for … in GGGAAUGGAUCCACAUCUACGAAUUC…UUCACUGCAGACUUGACGAAGCUG
# Method in brief: (§1)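 Mutagenized RNA pools (0.43 μM; 21-nt variable region) were treated with 2–1250 μM of each biotinyl-aminoacyl-oxazolone. Conditions were 50 μL HEPES/NaCl/KCl/MgCl2/CaCl2 buffer, 5% acetonitrile, pH 6.9–7.0, room temperature, 90 minutes. Catalytic enhancement, the median kA relative to the uncatalyzed rate, was derived from streptavidin capture, qPCR and Illumina sequencing.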
# biotinyl-Phe-oxazolone = assay: self-aminoacylation, catalytic enhancement (BFO) (fold over background); higher = more active; k-Seq, kA / k0A0; sequences stand for … in GGGAAUGGAUCCACAUCUACGAAUUC…UUCACUGCAGACUUGACGAAGCUG
# Method in brief: as §1
# biotinyl-Met-oxazolone = assay: self-aminoacylation, catalytic enhancement (BMO) (fold over background); higher = more active; k-Seq, kA / k0A0; sequences stand for … in GGGAAUGGAUCCACAUCUACGAAUUC…UUCACUGCAGACUUGACGAAGCUG
# Method in brief: as §1
# biotinyl-Val-oxazolone = assay: self-aminoacylation, catalytic enhancement (BVO) (fold over background); higher = more active; k-Seq, kA / k0A0; sequences stand for … in GGGAAUGGAUCCACAUCUACGAAUUC…UUCACUGCAGACUUGACGAAGCUG
# Method in brief: as §1
# biotinyl-Trp-oxazolone = assay: self-aminoacylation, catalytic enhancement (BWO) (fold over background); higher = more active; k-Seq, kA / k0A0; sequences stand for … in GGGAAUGGAUCCACAUCUACGAAUUC…UUCACUGCAGACUUGACGAAGCUG
# Method in brief: as §1
# biotinyl-Ile-oxazolone = assay: self-aminoacylation, catalytic enhancement (BIO) (fold over background); higher = more active; k-Seq, kA / k0A0; sequences stand for … in GGGAAUGGAUCCACAUCUACGAAUUC…UUCACUGCAGACUUGACGAAGCUG
# Method in brief: as §1
Sequence,self-aminoacylation (biotinyl-Leu-oxazolone),self-aminoacylation (biotinyl-Phe-oxazolone),self-aminoacylation (biotinyl-Met-oxazolone),self-aminoacylation (biotinyl-Val-oxazolone),self-aminoacylation (biotinyl-Trp-oxazolone),self-aminoacylation (biotinyl-Ile-oxazolone)
AAUACCCUGGUCAUCGAGUGA [Fam2.1 aminoacylation ribozyme variant],8.74,20.8,9.27,5.52,11.2,5.01
AAUACCCUGGUCAUCGAGUGU [Fam2.1 aminoacylation ribozyme variant],7.95,20.5,8.79,4.56,8.44,3.84
AAUACCCUGGUCAUCGCGUGA [Fam2.1 aminoacylation ribozyme variant],15.7,118,16.9,8.98,16.1,7.23
AAUACCCUGGUCAUCGUGUGA [Fam2.1 aminoacylation ribozyme variant],2.39,11.4,2.55,1.35,2.98,1.51
AAUACCCUGGUCAUCUAGUGA [Fam2.1 aminoacylation ribozyme variant],7.36,28.3,6.98,3.66,8.94,3.19
AAUACCCUGGUCAUGGAGUGA [Fam2.1 aminoacylation ribozyme variant],3.47,1.9,2.43,1.86,3.45,2.21
AAUACCCUGGUCUUCGAGUGA [Fam2.1 aminoacylation ribozyme variant],3.26,12.6,3.34,2.32,4.72,2.2
AAUACCUUGGUCAUCGAGUGA [Fam2.1 aminoacylation ribozyme variant],6.66,7.36,6.2,3.99,7.87,4.23
AAUACGCUGGUCAUCGAGUGA [Fam2.1 aminoacylation ribozyme variant],5,15.1,4.31,3.88,5.67,3.67
AAUACUCUGGUCAUCGAGUGA [Fam2.1 aminoacylation ribozyme variant],3.72,8.91,3.85,2.77,5.7,2.59
AAUAGCCUGGUCAUCGAGUGA [Fam2.1 aminoacylation ribozyme variant],4.95,18.6,4.77,4.05,7.5,4.15
AAUCACCGAGGUCAUCGGGUG [Fam2.2 aminoacylation ribozyme variant],6.88,67.7,5.14,5.33,7.72,5.03
AAUCACCUAGGUCACCGGGUG [Fam2.2 aminoacylation ribozyme variant],5.27,21.8,4.08,4.04,6.06,4.26
AAUCACCUAGGUCAUCGGAUG [Fam2.2 aminoacylation ribozyme variant],0.798,0.476,0.909,1.19,1.08,1.06
AAUCACCUAGGUCAUGGGGUG [Fam2.2 aminoacylation ribozyme variant],4.25,19.4,3.26,3.71,4.91,3.44
AAUCACCUAGGUUAUCGGGUG [Fam2.2 aminoacylation ribozyme variant],4.57,38.4,4.32,4.23,7.07,3.83
AAUCACCUAGUUCAUCGGGUG [Fam2.2 aminoacylation ribozyme variant],2.59,16.3,3.33,3.16,3.72,3.01
AAUCACCUUGGUCAUCGGGUG [Fam2.2 aminoacylation ribozyme variant],6.76,43.2,6.06,5.18,8.74,4.22
AAUCACGUAGGUCAUCGGGUG [Fam2.2 aminoacylation ribozyme variant],4.02,30.4,3.19,3.77,4.86,3.09
AAUCAGCUAGGUCAUCGGGUG [Fam2.2 aminoacylation ribozyme variant],5.01,37.5,4.97,6.64,7.54,5.2
AAUUUGGCUAAUAGUCGCAAG [Fam3.1 aminoacylation ribozyme variant],1.96,2.14,1.82,1.7,1.99,1.79
AAUUUUGCCAAUAGUCGCAAG [Fam3.1 aminoacylation ribozyme variant],1.8,2.34,2.31,1.69,1.8,1.78
AAUUUUGCUAAUAGCCGCAAG [Fam3.1 aminoacylation ribozyme variant],1.49,1.7,1.33,1.44,1.31,1.74
AAUUUUGCUAAUAGUCGAAAG [Fam3.1 aminoacylation ribozyme variant],1.2,3.69,1.16,0.991,2.11,1.56
AAUUUUGCUAAUAGUGGCAAG [Fam3.1 aminoacylation ribozyme variant],0.633,0.836,0.798,0.632,0.652,0.771
